Laboratory results: article PMC7864079, “Molecular basis for histone H3 “K4me3-K9me3/2” methylation pattern readout by Spindlin1” (The Journal of Biological Chemistry, 2021)

Target: double Tudor domains of JMJD2A
Experiment: ITC; reader domains (BPTF, RAG2, ZCWPW1, SGF29, JMJD2A) titrated with H3 peptides; 25°C; One Set of Binding Sites model

Kd [nM]	Substance
600	H3_(1–20) K4me3 peptide (from UniProt P68431 2-21)
900	H3_(1–20) “K4me3-K9me3” peptide (from UniProt P68431 2-21)
